Test: Carboxylate reductase activity assay, adipate to adipate semialdehyde
Type: biochemical
Details: enhanced by gene product of sfp, 2 mM adipate, room temperature, 20 min, vs empty vector control, FIG. 10
Protocol: A nucleotide sequence encoding a HIS-tag was added to the genes from Segniliparus rugosus and Segniliparus rotundus that encode the carboxylate reductases of SEQ ID NOs: 5 and 7, respectively (see FIGS. 7C and 7E), such that N-terminal HIS tagged carboxylate reductases could be produced. Each of the modified genes was cloned into a pET Duet expression vector along with a sfp gene encoding a HIS-tagged phosphopantetheine transferase from Bacillus subtilis, both under the T7 promoter. Each expression vector was transformed into a BL21[DE3] E. coli host and the resulting recombinant E. coli strains were cultivated at 37° C. in a 250 mL shake flask culture containing 50 mL LB media and antibiotic selection pressure, with shaking at 230 rpm. Each culture was induced overnight at 37° C. using an auto-induction media.
The pellet from each induced shake flask culture was harvested via centrifugation. Each pellet was resuspended and lysed via sonication, and the cell debris was separated from the supernatant via centrifugation. […]
Enzyme activity assays (i.e., from adipate to adipate semialdehyde) were performed in triplicate in a buffer composed of a final concentration of 50 mM HEPES buffer (pH=7.5), 2 mM adipate, 10 mM MgCl2, 1 mM ATP and 1 mM NADPH. […] The consumption of NADPH was monitored by absorbance at 340 nm.

B1: SEQ ID NO 5: Segniliparus rugosus carboxylate reductase (Genbank Accession No. EFV11917.1) (protein, listed as Segniliparus rugosus)
chain: MGDGEERAKRFFQRIGELSATDPQFAAAAPDPAVVEAVSDPSLSFTRYLDTLMRGYAERPALAHRVGAGYETISYGELWARVGAIAAAWQADGLAPGDFVATVGFTSPDYVAVDLAAARSGLVSVPLQAGASLAQLVGILEETEPKVLAASASSLEGAVACALAAPSVQRLVVFDLRGPDASESAADERRGALADAEEQLARAGRAVVVETLADLAARGEALPEAPLFEPAEGEDPLALLIYTSGSTGAPKGAMYSQRLVSQLWGRTPVVPGMPNISLHYMPLSHSYGRAVLAGALSAGGTAHFTANSDLSTLFEDIALARPTFLALVPRVCEMLFQESQRGQDVAELRERVLGGRLLVAVCGSAPLSPEMRAFMEEVLGFPLLDGYGSTEALGVMRNGIIQRPPVIDYKLVDVPELGYRTTDKPYPRGELCIRSTSLISGYYKRPEITAEVFDAQGYYKTGDVMAEIAPDHLVYVDRSKNVLKLSQGEFVAVAKLEAAYGTSPYVKQIFVYGNSERSFLLAVVVPNAEVLGARDQEEAKPLIAASLQKIAKEAGLQSYEVPRDFLIETEPFTTQNGLLSEVGKLLRPKLKARYGEALEARYDEIAHGQADELRALRDGAGQRPVVETVVRAAVAISGSEGAEVGPEANFADLGGDSLSALSLANLLHDVFEVEVPVRIIIGPTASLAGIAKHIEAERAGASAPTAASVHGAGATRIRASELTLEKFLPEDLLAAAKGLPAADQVRTVLLTGANGWLGRFLALEQLERLARSGQDGGKLICLVRGKDAAAARRRIEETLGTDPALAARFAELAEGRLEVVPGDVGEPKFGLDDAAWDRLAEEVDVIVHPAALVNHVLPYHQLFGPNVVGTAEIIRLAITAKRKPVTYLSTVAVAAGVEPSSFEEDGDIRAVVPERPLGDGYANGYGNSKWAGEVLLREAHELVGLPVAVFRSDMILAHTRYTGQLNVPDQFTRLVLSLLATGIAPKSFYQQGAAGERQRAHYDGIPVDFTAEAITTLGAEPSWFDGGAGFRSFDVFNPHHDGVGLDEFVDWLIEAGHPISRIDDHKEWFARFETAVRGLPEAQRQHSLLPLLRAYSFPHPPVDGSVYPTGKFQGAVKAAQVGSDHDVPHLGKALIVKYADDLKALGLL
  carboxylate reductase activity for converting adipate to adipate semialdehyde (consumption of NADPH, absorbance at 340 nm): accepted adipate as substrate
